How the values were obtained:
[1] = AB79-1501 study, AB79 monotherapy SC in RRMM: safety; assay type: in vivo
From the text: Patients eligible for study enrollment are refractory or intolerant to at least one PI and at least one IMiD, and have received either ≥3 prior therapies or ≥2 prior therapies, if one of those therapies included a combination of a PI and an IMiD. In the phase 1b dose-escalation part of the study, patients who were previously exposed to an anti-CD38 agent are eligible; however, this criterion is not required. In the phase 2a expansion part of the study, patients were also refractory to at least one anti-CD38 monoclonal therapy at any time during prior treatment. The study was designed to evaluate the safety and tolerability of subcutaneously administered AB79 monotherapy in patients with RRMM, to determine the recommended phase 2 dose (RP2D), and to provide a preliminary assessment of its single-agent activity against RRMM, including in patients who are refractory to daratumumab. Parameters such as safety, tolerability, pharmacokinetics (PK), pharmacodynamics, and disease response were assessed.
Clinical safety data includes that from patients who received a single dose and from patients who received multiple doses in multiple cycles followed by treatment-free periods. Based on the mechanism of action (MOA) of AB79 and the subcutaneous (SC) route of administration, potential adverse events (AEs) included systemic reaction (e.g., cytokine release syndrome (CRS) and hypersensitivity reaction), hematologic effects (e.g., reduced platelet, lymphocyte, neutrophil, and RBC counts), infections (e.g., bacterial and/or viral infections secondary to immune suppression), and injection site reaction (i.e., erythema or tenderness).

[2] = AB79-2001 phase 1b study in SLE: safety; assay type: in vivo, human; conditions: 15 patients, data still blinded (AB79 or placebo)
From the text: AB79-2001 is a double-blind, placebo-controlled phase 1b study in patients with moderate to severe SLE. As of the clinical data cutoff, a total of 15 patients had received at least 1 dose of AB79 or placebo. Data is still blinded for this study. No new safety concerns have been identified.

[3] = test system: relapsed/refractory multiple myeloma (RRMM); assay: AB79-1501 study, AB79 plus PomDex combination cohort in RRMM: disease response; assay type: in vivo, human
From the text: This is a multicenter, dose-escalation, open-label, single-arm, Phase 1/2a study designed to determine the safety, tolerability, efficacy, PK, and immunogenicity of AB79 monotherapy in patients with RRMM, and to provide a preliminary assessment of its activity against MM. This study is an amendment to the Phase 1/2a study in RRMM described in Example 1 (a) to allow for an increase in the number of patients enrolled in the Phase 1 study; and (b) to add a cohort of patients to evaluate AB79 combined with the backbone regimen of pomalidomide and dexamethasone (PomDex) in patients with RRMM who have received at least 2 prior therapies and are refractory to the last therapy before study entry. PomDex is approved for this patient population and adding an anti-CD38 monoclonal antibody to it, especially one that is given subcutaneously (SC), could be beneficial and convenient for patients.
The study provides a Confirmation Cohort and a Combination Cohort. […]
The preliminary efficacy of AB79 for MM is evaluated by measuring the ORR (defined as the proportion of patients who achieved a PR or better during study) and the composition of sCR, CR, VGPR, and PR as defined by the IMWG Uniform Response Criteria. MR will also be analyzed. In addition, the efficacy of AB79 is assessed in patients by measuring DOR, PFS, and 1-year OS. TTR will also be measured. […]

[4] = monotherapy SC, total population, 45-600 mg

AB79: anti-CD38 monoclonal IgG1 antibody; heavy chain SEQ ID NO:11, light chain SEQ ID NO:12
infusion-related reactions (IRRs) ([1]; SC, dosed up to 600 mg): have not been observed | patients with AEs that led to study discontinuation ([1]; both reported as not related to AB79): Two | injection site reactions ([1]; monotherapy SC): < 0.25% | share of AEs overall that were Grade 1 or 2 ([1]; monotherapy SC): 55% | systemic reactions ([1]; monotherapy SC): no systemic reactions | TEAE regardless of causality: abdominal distension [1, 4]: 12% | TEAE regardless of causality: anemia [1, 4]: 15% | TEAE regardless of causality: back pain [1, 4]: 12% | TEAE regardless of causality: cough [1, 4]: 10% | TEAE regardless of causality: diarrhea [1, 4]: 17% | TEAE regardless of causality: fatigue [1, 4]: 27% | TEAE regardless of causality: headache [1, 4]: 15% | TEAE regardless of causality: hypertension [1, 4]: 12% | TEAE regardless of causality: insomnia [1, 4]: 22% | TEAE regardless of causality: nausea [1, 4]: 17% | TEAE regardless of causality: neutropenia [1, 4]: 12% | TEAE regardless of causality: pneumonia [1, 4]: 10% | TEAE regardless of causality: upper respiratory infection [1, 4]: 27% | dose-limiting toxicities (DLTs) ([1]; monotherapy cohorts): no DLTs | maximum tolerated dose (MTD) ([1]; monotherapy cohorts): has not been identified | drug-related SAEs (Diverticulitis) ([1]; patient with past medical history of diverticulitis): One | patients with a Grade 3 or higher TEAE or AEs leading to study drug discontinuation [2]: No patient | clinical benefit rate (minor response or better) [3]: 100% | preliminary objective response rate (ORR) [3]: 40%

— patent US20220241413A1, “COMBINATION THERAPIES USING CD-38 ANTIBODIES” (Takeda Pharmaceutical Company Limited, priority 2019, published 2022)
